US20260273085A1 (HANSOH BIO, published 2026)

T1: human CDH6-His tag (Acro Biosystems, catalog number CA6-H5229) (human, UniProt P55285 54-615)
T1 construct: Bought protein; also called hCDH6; not shown: His tag
T1 sequence (looked up): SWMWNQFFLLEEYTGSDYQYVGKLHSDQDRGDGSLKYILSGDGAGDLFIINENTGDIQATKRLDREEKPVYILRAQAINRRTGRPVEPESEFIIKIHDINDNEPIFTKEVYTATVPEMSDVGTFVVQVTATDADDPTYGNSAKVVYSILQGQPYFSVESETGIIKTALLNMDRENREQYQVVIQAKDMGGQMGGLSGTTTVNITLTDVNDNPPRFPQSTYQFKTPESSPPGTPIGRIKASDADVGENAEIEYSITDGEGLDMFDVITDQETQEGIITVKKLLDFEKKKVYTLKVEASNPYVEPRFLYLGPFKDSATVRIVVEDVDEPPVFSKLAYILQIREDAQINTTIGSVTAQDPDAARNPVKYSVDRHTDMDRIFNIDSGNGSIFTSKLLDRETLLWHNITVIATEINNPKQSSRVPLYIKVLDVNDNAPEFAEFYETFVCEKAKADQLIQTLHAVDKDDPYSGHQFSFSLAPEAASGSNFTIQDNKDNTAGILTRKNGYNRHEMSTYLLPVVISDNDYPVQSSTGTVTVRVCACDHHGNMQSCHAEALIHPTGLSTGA

T2: human CDH16-His tag (Sino biological, catalog number 10915-H08H) (human, UniProt O75309 19-786)
T2 construct: Bought protein; also called hCDH16; not shown: His tag
T2 sequence (looked up): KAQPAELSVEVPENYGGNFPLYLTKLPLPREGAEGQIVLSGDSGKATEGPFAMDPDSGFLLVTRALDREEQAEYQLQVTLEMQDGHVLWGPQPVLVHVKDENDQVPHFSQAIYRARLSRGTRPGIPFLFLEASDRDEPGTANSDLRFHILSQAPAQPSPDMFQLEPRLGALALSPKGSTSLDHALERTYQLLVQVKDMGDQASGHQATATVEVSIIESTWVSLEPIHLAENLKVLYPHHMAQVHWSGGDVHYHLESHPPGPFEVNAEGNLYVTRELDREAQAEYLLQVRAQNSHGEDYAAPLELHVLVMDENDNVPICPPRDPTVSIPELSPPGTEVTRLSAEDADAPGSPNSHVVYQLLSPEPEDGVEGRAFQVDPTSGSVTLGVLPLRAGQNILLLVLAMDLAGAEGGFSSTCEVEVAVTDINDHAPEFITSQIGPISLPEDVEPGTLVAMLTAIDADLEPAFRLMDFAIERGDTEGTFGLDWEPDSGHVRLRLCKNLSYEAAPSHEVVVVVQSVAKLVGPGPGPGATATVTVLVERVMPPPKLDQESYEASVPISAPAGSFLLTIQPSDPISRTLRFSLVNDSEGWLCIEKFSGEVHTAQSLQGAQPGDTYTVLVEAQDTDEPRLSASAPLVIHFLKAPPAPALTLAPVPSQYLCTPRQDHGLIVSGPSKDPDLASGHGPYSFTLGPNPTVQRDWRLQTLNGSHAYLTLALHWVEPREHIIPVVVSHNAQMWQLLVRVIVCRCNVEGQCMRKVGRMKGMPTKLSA


Experiments:
[1] = target: human CDH17 as originally expressed on cancer cells (AsPC1, GP2d and other CDH17 expressing cell lines) (human) (UniProt Q12864); experiment: flow cytometry on AsPC1 cells, Alexa Fluor 647 labelled antibody
[2] = target: human CDH17 as originally expressed on cancer cells (AsPC1, GP2d and other CDH17 expressing cell lines) (human, UniProt Q12864 23-832); experiment: cell-based or functional assay
[3] = target: T3, cynomolgus CDH17-His tag (Acro Biosystems, catalog number CA7-C52H4) (cynomolgus, UniProt A0A2K5X8I8 31-795); experiment: BLI (Octet Red 384), antibody captured on AHC biosensor, antigen 200 nM to 3.1 nM
T3 construct: Bought protein; also called cCDH17; cynomolgus CDH17 protein; not shown: His tag
T3 sequence (A0A2K5X8I8 entry or part of it, form in doubt): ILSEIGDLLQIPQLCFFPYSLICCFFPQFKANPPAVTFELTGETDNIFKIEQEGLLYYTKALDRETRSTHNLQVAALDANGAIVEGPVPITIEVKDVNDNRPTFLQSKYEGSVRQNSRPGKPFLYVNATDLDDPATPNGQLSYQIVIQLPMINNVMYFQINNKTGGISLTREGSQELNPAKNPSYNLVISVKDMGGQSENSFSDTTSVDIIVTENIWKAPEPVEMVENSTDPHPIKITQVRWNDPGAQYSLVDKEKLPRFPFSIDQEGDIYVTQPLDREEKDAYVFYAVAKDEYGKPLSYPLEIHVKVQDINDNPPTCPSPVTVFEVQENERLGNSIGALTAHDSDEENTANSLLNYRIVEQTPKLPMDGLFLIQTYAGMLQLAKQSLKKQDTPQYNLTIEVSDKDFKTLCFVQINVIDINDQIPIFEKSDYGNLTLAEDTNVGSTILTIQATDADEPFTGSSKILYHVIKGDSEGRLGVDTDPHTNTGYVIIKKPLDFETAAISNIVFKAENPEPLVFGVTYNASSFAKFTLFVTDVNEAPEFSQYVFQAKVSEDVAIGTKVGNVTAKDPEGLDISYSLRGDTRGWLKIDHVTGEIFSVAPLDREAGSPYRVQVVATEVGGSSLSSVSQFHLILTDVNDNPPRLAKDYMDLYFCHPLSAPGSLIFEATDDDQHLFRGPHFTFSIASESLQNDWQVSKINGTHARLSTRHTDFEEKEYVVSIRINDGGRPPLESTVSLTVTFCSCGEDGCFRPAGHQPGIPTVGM
Experimental: (§1) The affinity between CDH17 antibodies and CDH17 antigens and homologues was determined by Octet (Octet Red 384) instrument. Anti-hIgG Fc Capture (AHC) Biosensors were selected, and the sensors were balanced with buffer solution for 10 min. Subsequently, sensors were dipped into the wells containing 1 μg/ml of CDH17 lead antibodies to load onto the probes. The excess unbound antibodies were washed off. The antigen binding was performed in the wells containing serially diluted human CDH17-His tag (Sino biological, catalog number 11360-H08H), cynomolgus CDH17-His tag (Acro Biosystems, catalog number CA7-C52H4), homologs human CDH6-His tag (Acro Biosystems, catalog number CA6-H5229) and human CDH16-His tag (Sino biological, catalog number 10915-H08H), with concentration ranging from 200 nM to 3.1 nM, for 5 min. Then probes were dipped into wells containing renewed buffer to initiate the dissociation for another 15 min.

[4] = target: T1, human CDH6-His tag (Acro Biosystems, …); experiment: BLI (Octet Red 384), antibody captured on AHC biosensor
Experimental: as §1

[5] = target: T2, human CDH16-His tag (Sino biological, …); experiment: as above
Experimental: as §1

Row | Molecule | IC50 of indirect killing assay (internalization) in AsPC1 cells, complex with Fab anti-human IgG Fc-MMAF [2] | also measured
1 | HBMAB-81, reformatted mAb with the CDH17 binding arm from bispecific antibody BI 905771 and human IgG1 backbone | – | EC80 [1]: 0.97 nM
2 | 17F3 anti-CDH17 recombinant antibody (human IgG1) (antibody, V domains shown) VH: EVQLVESGGGLVKSGGSLRLSCAASGFTFSSYSLKWVRQAPGKGLEWVSSISSSSGYIYYADSVKGRFTISRDNAKNSLYLQMNSLRAEDTAMYYCARAVSTIAARPGYYYYYMDVWGKGTLVTVSS VL: DIQMTQSPSSVSASIGDRVTITCRASQDISTWFAWYQQKPGKAPKLLIYAASTLRSGVPSRFSGSGSGTDFTLTINSLQPEDFATYYCQQANSFPLTFGGGTKVEIKR | 0.08 nM | –
3 | 13C7 anti-CDH17 recombinant antibody (human IgG1) (antibody, V domains shown) VH: QITLKESGPTLVKPTQTLTLTCTFSGFSLSTSGVGVGWIRQPPGKALEWLALIYWNDDKRYRPSLKNRLTITKDTSKNQVVLTMTNMDPVDTATYYCTHYGVTAPFYNWFDPWGQGTLVTVSS VL: DIQMTQSPSSLSASVGDRVTITCRASQSITSYLNWYQQKPGKAPKLLIYAASSLQSGVPSRFSGSGSGTDFTLTISSLQPEDFATYYCQRSYSTLTFGGGTKVEIKR | 0.09 nM | –
4 | 19C7 anti-CDH17 recombinant antibody (human IgG1) (antibody, V domains shown) VH: QITLKESGPTLVKPTQTLTLTCTFSGISLSTGGVGVGWIRQPPGKALEWLSLIYWNDDKRYSPSLKSRLTITKDSSKNQVVLTMTNMDPVDTATYYCAHSGLAAPFYNWFDPWGQGTLVTVSS VL: DIQMTQSPSSLSASVGDRVTITCRASQSISNYLNWYQLKPGNAPKLLIFAASSLQSGVPSRFSGSGSGTDFTLTISSLQPEDFATYFCQRSYSTLTFGGGTKVEIKR | 0.09 nM | –
5 | 1H10 anti-CDH17 recombinant antibody (human IgG1) (antibody, V domains shown) VH: QVQLVESGGGVVQPGRSLRLSCVASGFTFSSYGMHWVRQAPGKGLEWVTFIWYDGSNKNYADSVKGRFTISRDNSKNTLNLQMNSLRVEDTAVYYCARDRYSSGWDVFDYWGQGTLVTVSS VL: DIQMTQSPSSVSASVGDRVTITCRASQDISSWLAWYQQQPGKAPKLQIYAASSLQSGVPSRFSGSGSGTDFTLTISSLQPEDFATYYCQQAKSFPPTFGQGTKVEIKR | 0.19 nM | –
6 | 15A4 anti-CDH17 recombinant antibody (human IgG1) (antibody, V domains shown) VH: QVQLVESGGGVVQPGRSLRLSCAASGFNFSSYGMHWVRQAPGKGLEWVAFVWYDGSNQNYADSVKGRFTISRDNSNNTLYLQMNSLRAEDTAVYYCARDRYSSGWDVFDYWGQGTLVTVSS VL: DIQMTQSPSSVSASVGDRVTITCRASQGISSWLAWYQQKPGKAPKLLIFAASSLQSGVPSRFSGSGSGTGFTLTISSLQPEDFATYYCQQAKSFPPTFGQGTKVEIKR | 1.99 nM | –
7 | 10E11 anti-CDH17 recombinant antibody (human IgG1) (antibody, V domains shown, Recombinant human IgG1 / kappa, expressed in CHO or ExpiCHO-S cells) VH: EVQLVQSGTEVKKPGESLKISCKDSGYRFSSYWIGWVRQMPGKGLEWMGIIYPGDSDTRYSPSFQGQVTISADKSISTAYLQWRSLKASDTAMYYCARRGWVNYFDYWGQGTLVTVSS VL: DIQMTQSPSSVSASVGDRVTITCRASQGISNWLGWYQQKPGKAPKLLIYAASSLQSGVPSRFSGSGSGTDFTLTISSLQPEDFATYYCQQANSFPLTFGGGTKVEIKR | 0.08 nM | Kd [3]: 15 nM; koff [3]: 0.0012 s⁻¹; kon [3]: 80000 M⁻¹ s⁻¹; binding result [4]: no binding (tested: 200 nM highest antigen concentration); binding result [5]: no binding (tested: 200 nM highest antigen concentration)
8 | 4F9 anti-CDH17 recombinant antibody (human IgG1) (antibody, V domains shown) VH: QVQLQESGPGLVKPSGTLSLTCAVSGGSISSSNWWSWVRQPPGKGLEWIGEIYHSGSTSYNPSLKSRVTISVDKSKNQFSLKLSSVTAADTAVYYCARNDWGFPLDCWGQGTLVTVSS VL: DIQMTQSPSSLSASVGDRVTITCRASQSISSYLNWYQQKPGKAPKLLIYAASSLQSGVPSRFSGSGSGTHFTLTISSLQPEDFATYYCQQSHNIPITFGQGTRLEIKR | 0.29 nM | –
9 | 2F9 anti-CDH17 recombinant antibody (human IgG1) (antibody, V domains shown) VH: EVQLVESGGGVVRPGGSLRLSCAASGFTFDDYGMSWVRQAPGKGLEWVSGLSWNGGNTYYADSVKGRFTISRDNAKNSLYLQMNSLRAEDTALYYCARGSRYNWNYDAFDIWGQGTLVTVSS VL: DIQMTQSPSSLSASIGDRVTITCRASQGIRNALGWYQQKPGKAPKRLIYAASNLQSGVPSRFSGSGSGTEFTLTISSLQPEDFATYYCLQHNSYPFTFGPGTKVEIKR | 0.14 nM | –
10 | 9E2 anti-CDH17 recombinant antibody (human IgG1) (antibody, V domains shown) VH: EVQLVESGGGVVRPGGSLRLSCAASGFTFDNYGMSWVRQAPGKGLEWVSGINWNGGSTYYADSVRGRFTISRDNAKNSLYLQMNSLRAEDTALYYCARGSRYNWSYDAFDIWGQGTLVTVSS VL: DIQMTQSPSSLSASVGDRVTITCRASQGVRNALGWYQQKPGKAPKRLIYAASSLQSGVPSRFSGSGSGTEFTLTISSLQPEDFATYYCLQHNSYPFTFGPGTKVEIKR | 0.15 nM | –
11 | 14B12 anti-CDH17 recombinant antibody (human IgG1) (antibody, V domains shown, Recombinant human IgG1 / kappa, expressed in CHO or ExpiCHO-S cells) VH: QVQLQESGPGLVKPSETLSLTCTVSGGSINTYYRSWIRQPPGKGLEWIGYIYYSGNTNYNPSLKSRVTISADTSKNQFSLNLISVTAADTAMYYCARAQYGEEAFDIWGQGTLVTVSS VL: DIQMTQSPSSLSASVGDRVTITCRASQSITTYLNWYQQKPGKAPQLLIFAASRLQTGVPSRFSGSGSGTDFTLTISSLLPGDFATYYCQQSYNTPPTFGGGTKVEIKR | 0.09 nM | binding result [4]: no binding (tested: 200 nM highest antigen concentration); binding result [5]: no binding (tested: 200 nM highest antigen concentration)
